Patent publication US20190177410A1 (Regeneron, published 2019)

Key:
Assay in all cases: cell-based or functional assay
[1] = target: T1, full-length human APLNR (hAPLNR) (human, UniProt P35414 1-380)
T1 sequence: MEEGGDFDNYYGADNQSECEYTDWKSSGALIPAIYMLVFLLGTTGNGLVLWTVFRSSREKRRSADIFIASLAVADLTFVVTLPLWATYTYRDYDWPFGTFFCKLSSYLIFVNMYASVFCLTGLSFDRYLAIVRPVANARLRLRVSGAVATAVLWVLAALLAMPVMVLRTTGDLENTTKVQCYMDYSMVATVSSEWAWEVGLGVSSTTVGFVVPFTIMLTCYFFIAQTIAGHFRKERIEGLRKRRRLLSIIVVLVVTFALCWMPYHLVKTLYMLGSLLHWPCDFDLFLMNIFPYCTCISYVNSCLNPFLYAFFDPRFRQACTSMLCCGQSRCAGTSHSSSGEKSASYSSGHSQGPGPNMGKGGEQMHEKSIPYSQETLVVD

[2] = target: T1, full-length human APLNR (hAPLNR); remark: listed apart in the source
[3] = target: T1, full-length human APLNR (hAPLNR); remark: listed apart in the source
[4] = target: T2, human Apelin receptor (hAPLNR) of PathHunter eXpress AGTRL1 CHO-K1 beta-Arrestin cells (human, UniProt P35414 1-380)
T2 sequence: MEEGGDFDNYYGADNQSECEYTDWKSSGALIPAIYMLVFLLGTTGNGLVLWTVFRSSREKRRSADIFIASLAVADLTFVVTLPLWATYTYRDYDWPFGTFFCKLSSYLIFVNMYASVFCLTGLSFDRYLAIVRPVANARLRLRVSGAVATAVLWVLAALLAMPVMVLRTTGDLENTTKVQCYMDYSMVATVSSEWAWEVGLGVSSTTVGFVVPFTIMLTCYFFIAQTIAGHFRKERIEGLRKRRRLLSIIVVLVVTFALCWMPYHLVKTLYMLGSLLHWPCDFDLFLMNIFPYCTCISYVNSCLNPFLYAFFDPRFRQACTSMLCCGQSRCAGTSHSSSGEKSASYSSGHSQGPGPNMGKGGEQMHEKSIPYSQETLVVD

[5] = target: T1, full-length human APLNR (hAPLNR); remark: listed apart in the source

B1: H2aM9222N (antibody, mouse IgG2a, V domains shown)
VH: EVQLVESGGGLVQPGGSLRLSCAASGFTFSNYWMSWVRQAPGKGLEWVANIKQDGSERYYVGSVKGRFTISRGDAENSLYLQMNSLRAEDTAVYYCARDRFGYSAYDKGVRYYYGMDVWGQGTTVTVSS
VL: DIQMTQSPSSLSASVGDRVTITCRASQGIRNDLGWYQQKPGKAPKRLIYAASSLQSGVPSRFSGSGSGTEFTLTISSLQPEDFATYYCLQHNSYPRTFGQGTKVEIK
In the case of B1, the “Activating EC50 (M), ratio of pERK1/2 to total ERK, CHO/hAPLNR cells” value [1] is reported as 4.79e-08 M.

B2: H2aM9228N (antibody, mouse IgG2a, V domains shown)
VH: EVQLVESGGGLVQPGGSLRLSCAASGFTFSNYWMSWVRLAPGKGLEWVANIKQDGSERYYVGSVKGRFTISRGDAKNSLYLQMNSLRAEDTAVYYCARDRFGYSAFDKGVRYYYGMDVWGQGTTVTVSS
VL: DIQMTQSPSSLSASVGDRVTITCRASQGIRNDLGWYQQKPGKAPKRLIYAASSLQSGVPSRFSGSGSGTEFTLTISSLQPEDFATYYCLQHNSYPRTFGQGTKVEIK
For B2, the “Activating EC50 (M), ratio of pERK1/2 to total ERK, CHO/hAPLNR cells” value [1] was 6.41e-08 M.

B3: H4H9093P-APN10-(G4S)3 (antibody, V domains shown)
VH: EVQLVESGGGLVKPGGSLRLSCAASGITFSNAWMSWVRQAPGKGLEWVGRFKGKADGGTVDYAAPVKGRFTISRDDSKNTLYLQMNSLKNEDTAVYYCTTGRITMVRGVLGYWGQGTLVTVSS
VL: not shown
B3 was tested, and the “IC50 [M], in the presence of 100 pM Apelin (7.5 uM Forskolin), CRE-luc” value [2] was 3.2e-08 M, the “EC50 [M] (7.5 uM Forskolin), CRE-luc” value [3] was 1.4e-09 M and the “% Activation at 500 nM antibody or Apelin-antibody fusion, PathHunter beta-Arrestin assay” value [4] was 5%. The “EC50 [M], PathHunter beta-Arrestin assay” value [4] was 6.5e-09 M.

B4: H4H9092P (antibody, human IgG4, V domains shown)
VH: EVQLVESGGGLVKPGGSLRLSCAASGITFSNAWMSWVRQAPGKGLEWVGRIKSKVDGGTIDYAAPVKGRFTISRDDSKNTLYLQMNSLKTEDTAVYYCTTGRITMVRGVLGYWGQGTLVTVSS
VL: not shown
In the case of B4, the “% Inhibition at 100 nM mAb, in the presence of 100 pM Apelin (at 10 uM Forskolin), CRE-luc” value [5] is reported as 5%.

B5: H2aM9232N (antibody, mouse IgG2a, V domains shown)
VH: QVKLVESGGGVVQPGRSLRLSCAASGFTFSNYVIHWVRQAPGKGLEWVAVIWYDGSNKYYADSVKGRFTISRDNSKNTLYLQMNSLRAEDTAVYYCARDRVVRGVDYYYYYGLDVWGQGTSVTVSS
VL: EIVMTQSPATLSVSPGERATLSCRASQSVRSNLAWYQQKPGQAPRLLIYGASSRATGIPARFSGTGSGTEFTLTISSLQSDDFAVYYCQQYNKWPRTFGQGTKVEIK
With B5 the “Inhibiting IC50 (M), ratio of pERK1/2 to total ERK, CHO/hAPLNR cells” value [1] was 2.09e-07 M.
